Entries after “also recorded” stand apart in the source; their conditions may differ.
T1: HD-PTPBro1-CC (Homo sapiens, UniProt Q9H3S7)
T1 construct: HD-PTPBro1-CC (1–714) was cloned into a pET28a vector with restriction sites Nde1 and Xho1; made in house; host or cells: Escherichia coli BL21(DE3)
T1 sequence (Q9H3S7 1-714): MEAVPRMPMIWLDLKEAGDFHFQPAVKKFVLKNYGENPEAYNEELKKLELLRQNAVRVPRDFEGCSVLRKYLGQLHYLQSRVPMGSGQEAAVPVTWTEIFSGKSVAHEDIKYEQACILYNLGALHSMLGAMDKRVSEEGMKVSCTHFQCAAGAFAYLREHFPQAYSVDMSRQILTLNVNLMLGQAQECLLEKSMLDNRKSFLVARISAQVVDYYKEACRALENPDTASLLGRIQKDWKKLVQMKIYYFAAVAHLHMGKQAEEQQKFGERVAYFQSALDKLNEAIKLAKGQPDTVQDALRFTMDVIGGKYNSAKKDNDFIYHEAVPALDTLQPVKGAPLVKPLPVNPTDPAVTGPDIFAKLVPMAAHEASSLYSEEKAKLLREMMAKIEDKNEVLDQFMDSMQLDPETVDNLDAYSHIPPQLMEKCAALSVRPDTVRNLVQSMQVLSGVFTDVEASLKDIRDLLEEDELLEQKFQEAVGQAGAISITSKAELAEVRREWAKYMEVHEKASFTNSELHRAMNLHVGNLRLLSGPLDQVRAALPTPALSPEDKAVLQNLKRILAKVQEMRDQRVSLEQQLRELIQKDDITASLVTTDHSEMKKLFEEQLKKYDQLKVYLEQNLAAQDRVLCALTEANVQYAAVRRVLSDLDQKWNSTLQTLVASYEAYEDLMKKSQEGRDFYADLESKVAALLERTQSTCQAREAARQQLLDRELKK


What was measured:
HD-PTPBro1-CC = target: T1, HD-PTPBro1-CC; test: Yeast two-hybrid interaction with HD-PTPBro1-CC; assay type: binding; conditions: Matchmaker Gold, each triplicate experiment repeated at least three times
Protocol: HD-PTPBro1-CC, HD-PTPBro1-CC F678D, and AlixBro1-V cloned into pGBKT7 were used as described previously ([Stefani et al., 2011]). UBAP1 (122–308) was cloned into pGADT7. Further deletion and missense mutations in UBAP1 as indicated were generated by standard PCR-based mutagenesis. Interactions were tested using the Matchmaker Gold system (Clontech) as described previously ([Stefani et al., 2011]) Each triplicate experiment was repeated at least three times.

[1] = system: FKBP-HD-PTPBro1-CC in HeLa cells; test: Mitochondrial targeting (FKBP-HD-PTPBro1-CC / Mito-FRB relocalization, immunofluorescence); assay type: cell-based; conditions: rapamycin 1 μM, 3 hr; for relocation to mitochondria with HD-PTPBro1-CC: HeLa
Protocol: Mitochondrial targeting experiments were performed as previously described ([Sato et al., 2015]). HeLa cells were transiently transfected with HD-PTPBro1-CC containing an N-terminal FKBP sequence and a C-terminal myc tag (cloned into pcDNA5), Mito-FRB (a gift from Martin Lowe, Manchester, UK), and either GFP, WT UBAP1-GFP, or F268S UBAP1-GFP (in pEGFP). Mitochondrial relocation of FKBP-HD-PTPBro1-CC-myc was induced by addition of 1 μM rapamycin (Sigma) for 3 hr. Cells were then prepared for immunofluorescence microscopy as above. Mitochondrial relocation of GFP-tagged constructs was scored in three independent experiments (100 cells counted per experiment).

| Molecule | Y2H binding to HD-PTP (HD-PTPBro1-CC) | other results |
| --- | --- | --- |
| residues 260–269: minimal region of UBAP1 for effective binding to HD-PTP (VSNIKSLSFP; UniProt Q9NZ09 260-269, looked up, fragment) | minimal region for effective binding |  |
| CO[C@H]1C[C@@H]2CC[C@@H](C)[C@@](O)(O2)C(=O)C(=O)N2CCCC[C@H]2C(=O)O[C@H]([C@H](C)C[C@@H]2CC[C@@H](O)[C@H](OC)C2)CC(=O)[C@H](C)/C=C(\C)[C@@H](O)[C@@H](OC)C(=O)[C@H](C)C[C@H](C)/C=C/C=C/C=C/1C [rapamycin, reference compound] |  | relocalization of HD-PTPBro1-CC to mitochondria ([1]; FKBP-HD-PTPBro1-CC with mito-FRB): efficient relocalization |
| UBAP1-GFP: UBAP1 GFP fusion, wild-type (protein, left off: GFP, end not stated, kept, UBAP1 GFP fusion, wild-type) MASKKLGADFHGTFSYLDDVPFKTGDKFKTPAKVGLPIGFSLPDCLQVVREVQYDFSLEKKTIEWAEEIKKIEEAEREAECKIAEAEAKVNSKSGPEGDSKMSFSKTHSTATMPPPINPILASLQHNSILTPTRVSSSATKQKVLSPPHIKADFNLADFECEEDPFDNLELKTIDEKEELRNILVGTTGPIMAQLLDNNLPRGGSGSVLQDEEVLASLERATLDFKPLHKPNGFITLPQLGNCEKMSLSSKVSLPPIPAVSNIKSLSFPKLDSDDSNQKTAKLASTFHSTSCLRNGTFQNSLKPSTQSSASELNGHHTLGLSALNLDSGTEMPALTSSQMPSLSVLSVCTEESSPPNTGPTVTPPNFSVSQVPNMPSCPQAYSELQMLSPSERQCVETVVNMGYSYECVLRAMKKKGENIEQILDYLFAHGQLCEKGFDPLLVEEALEMHQCSEEKMMEFLQLMSKFKEMGFELKDIKEVLLLHNNDQDNALEDLMARAGAS |  | relocation to mitochondria with HD-PTPBro1-CC [1]: relocated to mitochondria; also recorded: translocates to mitochondria |
| F268S: F268S mutation in the FPXL motif of UBAP1, Y2H fragment (protein, UniProt Q9NZ09 1-502, looked up, variant F268S) Ubiquitin-associated protein 1: MASKKLGADFHGTFSYLDDVPFKTGDKFKTPAKVGLPIGFSLPDCLQVVREVQYDFSLEKKTIEWAEEIKKIEEAEREAECKIAEAEAKVNSKSGPEGDSKMSFSKTHSTATMPPPINPILASLQHNSILTPTRVSSSATKQKVLSPPHIKADFNLADFECEEDPFDNLELKTIDEKEELRNILVGTTGPIMAQLLDNNLPRGGSGSVLQDEEVLASLERATLDFKPLHKPNGFITLPQLGNCEKMSLSSKVSLPPIPAVSNIKSLSSPKLDSDDSNQKTAKLASTFHSTSCLRNGTFQNSLKPSTQSSASELNGHHTLGLSALNLDSGTEMPALTSSQMPSLSVLSVCTEESSPPNTGPTVTPPNFSVSQVPNMPSCPQAYSELQMLSPSERQCVETVVNMGYSYECVLRAMKKKGENIEQILDYLFAHGQLCEKGFDPLLVEEALEMHQCSEEKMMEFLQLMSKFKEMGFELKDIKEVLLLHNNDQDNALEDLMARAGAS | abolished binding |  |
| P269A: P269A mutation in UBAP1, Y2H fragment (protein, UniProt Q9NZ09 1-502, looked up, variant P269A) Ubiquitin-associated protein 1: MASKKLGADFHGTFSYLDDVPFKTGDKFKTPAKVGLPIGFSLPDCLQVVREVQYDFSLEKKTIEWAEEIKKIEEAEREAECKIAEAEAKVNSKSGPEGDSKMSFSKTHSTATMPPPINPILASLQHNSILTPTRVSSSATKQKVLSPPHIKADFNLADFECEEDPFDNLELKTIDEKEELRNILVGTTGPIMAQLLDNNLPRGGSGSVLQDEEVLASLERATLDFKPLHKPNGFITLPQLGNCEKMSLSSKVSLPPIPAVSNIKSLSFAKLDSDDSNQKTAKLASTFHSTSCLRNGTFQNSLKPSTQSSASELNGHHTLGLSALNLDSGTEMPALTSSQMPSLSVLSVCTEESSPPNTGPTVTPPNFSVSQVPNMPSCPQAYSELQMLSPSERQCVETVVNMGYSYECVLRAMKKKGENIEQILDYLFAHGQLCEKGFDPLLVEEALEMHQCSEEKMMEFLQLMSKFKEMGFELKDIKEVLLLHNNDQDNALEDLMARAGAS | no obvious effect on binding; also recorded: weaker phenotype |  |
| UBAP1-GFP F268S: UBAP1-GFP with F268S mutation (protein, left off: GFP, end not stated, kept, UBAP1-GFP with F268S mutation) MASKKLGADFHGTFSYLDDVPFKTGDKFKTPAKVGLPIGFSLPDCLQVVREVQYDFSLEKKTIEWAEEIKKIEEAEREAECKIAEAEAKVNSKSGPEGDSKMSFSKTHSTATMPPPINPILASLQHNSILTPTRVSSSATKQKVLSPPHIKADFNLADFECEEDPFDNLELKTIDEKEELRNILVGTTGPIMAQLLDNNLPRGGSGSVLQDEEVLASLERATLDFKPLHKPNGFITLPQLGNCEKMSLSSKVSLPPIPAVSNIKSLSSPKLDSDDSNQKTAKLASTFHSTSCLRNGTFQNSLKPSTQSSASELNGHHTLGLSALNLDSGTEMPALTSSQMPSLSVLSVCTEESSPPNTGPTVTPPNFSVSQVPNMPSCPQAYSELQMLSPSERQCVETVVNMGYSYECVLRAMKKKGENIEQILDYLFAHGQLCEKGFDPLLVEEALEMHQCSEEKMMEFLQLMSKFKEMGFELKDIKEVLLLHNNDQDNALEDLMARAGAS |  | relocation to mitochondria with HD-PTPBro1-CC [1]: not |
| L271A: L271A mutation in UBAP1, Y2H fragment (protein, UniProt Q9NZ09 1-502, looked up, variant L271A) Ubiquitin-associated protein 1: MASKKLGADFHGTFSYLDDVPFKTGDKFKTPAKVGLPIGFSLPDCLQVVREVQYDFSLEKKTIEWAEEIKKIEEAEREAECKIAEAEAKVNSKSGPEGDSKMSFSKTHSTATMPPPINPILASLQHNSILTPTRVSSSATKQKVLSPPHIKADFNLADFECEEDPFDNLELKTIDEKEELRNILVGTTGPIMAQLLDNNLPRGGSGSVLQDEEVLASLERATLDFKPLHKPNGFITLPQLGNCEKMSLSSKVSLPPIPAVSNIKSLSFPKADSDDSNQKTAKLASTFHSTSCLRNGTFQNSLKPSTQSSASELNGHHTLGLSALNLDSGTEMPALTSSQMPSLSVLSVCTEESSPPNTGPTVTPPNFSVSQVPNMPSCPQAYSELQMLSPSERQCVETVVNMGYSYECVLRAMKKKGENIEQILDYLFAHGQLCEKGFDPLLVEEALEMHQCSEEKMMEFLQLMSKFKEMGFELKDIKEVLLLHNNDQDNALEDLMARAGAS | no obvious effect on binding; also recorded: weaker phenotype |  |

— paper PMC5145805, “Structural Basis for Selective Interaction between the ESCRT Regulator HD-PTP and UBAP1” (Structure(London, England:1993), 2016)
